Source: paper PMC11339278 (2024)

T1: SNX17ΔC (residue 1-390) with an intramolecular decaHis tag (human, UniProt Q15036 1-390)
T1 chain: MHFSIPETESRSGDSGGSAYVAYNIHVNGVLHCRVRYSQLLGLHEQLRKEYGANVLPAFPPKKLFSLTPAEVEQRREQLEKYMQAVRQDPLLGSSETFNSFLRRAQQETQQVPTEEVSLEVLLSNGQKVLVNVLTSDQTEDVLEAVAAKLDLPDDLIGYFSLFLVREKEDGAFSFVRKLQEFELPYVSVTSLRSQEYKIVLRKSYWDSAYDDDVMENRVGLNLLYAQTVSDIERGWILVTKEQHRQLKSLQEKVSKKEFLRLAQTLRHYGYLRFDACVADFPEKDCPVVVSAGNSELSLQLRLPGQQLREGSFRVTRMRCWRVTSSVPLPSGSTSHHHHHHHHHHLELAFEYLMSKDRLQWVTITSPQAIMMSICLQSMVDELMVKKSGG

T2: SNX17 full length (residue 1-470) with an intramolecular decaHis tag (human, UniProt Q15036 1-470)
T2 chain: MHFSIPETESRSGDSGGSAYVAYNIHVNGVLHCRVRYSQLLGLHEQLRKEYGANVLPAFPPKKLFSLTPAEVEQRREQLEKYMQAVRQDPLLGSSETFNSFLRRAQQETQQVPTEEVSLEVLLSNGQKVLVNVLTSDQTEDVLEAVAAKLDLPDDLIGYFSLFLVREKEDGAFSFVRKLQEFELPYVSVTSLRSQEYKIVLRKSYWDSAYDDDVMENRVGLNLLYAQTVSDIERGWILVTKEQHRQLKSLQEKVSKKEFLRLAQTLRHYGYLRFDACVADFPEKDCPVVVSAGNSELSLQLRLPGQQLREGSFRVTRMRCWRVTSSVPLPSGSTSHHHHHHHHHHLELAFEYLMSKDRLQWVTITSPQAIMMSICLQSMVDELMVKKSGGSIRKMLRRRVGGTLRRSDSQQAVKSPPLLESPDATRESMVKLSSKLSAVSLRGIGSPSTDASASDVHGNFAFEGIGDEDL


What was measured:
[1] = molecular target: VPS29 (endogenous); assay: GFP-nanotrap pull-down, quantitative western blot; conditions: HEK293T cells, transient co-transfection; n = 3; parent: est. 1.0; read off a plot
[2] = molecular target: CCDC22 (endogenous); assay: GFP-nanotrap pull-down, quantitative western blot; conditions: HEK293T cells, transient co-transfection; n = 3; parent: est. 1.0; read off a plot
[3] = molecular target: CCDC93 (endogenous); assay: GFP-nanotrap pull-down, quantitative western blot; conditions: HEK293T cells, transient co-transfection; n = 3; parent: est. 1.0; read off a plot
[4] = molecular target: SNX17 full length (residue 1-470) with an intramolecular decaHis tag (human) (UniProt Q15036); assay: ITC; Microcal PEAQ, 10 °C, 500 mM NaCl, 100 mM Tris pH 8.0, 5% glycerol; 250 µM APP or LRP1 peptide, or 2 mM SNX17 tail peptide, injected into 20 µM SNX17 FL or SNX17ΔC; single site binding model
[5] = molecular target: SNX17 full length (residue 1-470) with an intramolecular decaHis tag (human) (UniProt Q15036); assay: ITC; APP or LRP1 peptide at 250 μM injected into 20 μM SNX17 FL or SNX17ΔC; 13 x 3.22 μL; 10 °C; 500 mM NaCl, 100 mM Tris pH 8.0, 5% glycerol; single site binding model
[6] = molecular target: SNX17ΔC (residue 1-390) with an intramolecular decaHis tag (human) (UniProt Q15036); assay: as above
[7] = molecular target: T1, SNX17ΔC (residue 1-390) with an …; assay: ITC
[8] = molecular target: T2, SNX17 full length (residue 1-470) with …; assay: ITC
[9] = molecular target: SNX17ΔC (residue 1-390) with an intramolecular decaHis tag (human) (UniProt Q15036); assay: ITC; 2 mM SNX17 tail peptide injected into 20 μM SNX17 FL or SNX17ΔC; 13 x 3.22 μL; 10 °C; 500 mM NaCl, 100 mM Tris pH 8.0, 5% glycerol; single site binding model

Row | ratio to parent [1] | ratio to parent [2] | ratio to parent [3] | fold lower affinity than for SNX17ΔC [4] [fold] | Kd [5] [µM] | Kd [6] [µM] | Kd [7] [µM] | Kd [8] [µM] | Kd [9] [µM] | Molecule
1 | 0.62 | 0.75 | 0.73 |  |  |  |  |  |  | VPS35L-GFP (from UniProt Q7Z3J2-1) W280A
2 | 1.1 | 1 | 1.1 |  |  |  |  |  |  | VPS35L-GFP (from UniProt Q7Z3J2-1) R248A
3 | 0.97 | 0.95 | 0.88 |  |  |  |  |  |  | VPS35L-GFP (from UniProt Q7Z3J2-1) K283E
4 |  |  |  | 2 | 16 | 7.03 | 4.74 | 14.8 |  | NGYENPTYKFFEQM [APP cargo recognition peptide (755-768)]
5 |  |  |  |  |  |  | 116 |  | 189 | SASDVHGNFAFEGIGDEDL [synthetic peptide of the SNX17 tail (452-470)]
6 |  |  |  | 2 | 14.3 | 4.6 | 3.64 | 13.6 |  | VEIGNPTYKMYEGG [LRP1 cargo recognition peptide (4466-4479)]
